From patent US20220034884A1 (GOVERNMENT OF THE UNITED STATES OF AMERICA AS REPRESENTED …, published 2022) come the findings set out here.

This experiment deals with T1, C-terminal GFP-tagged ACE2 fusion protein stably expressed on HEK293T cells (ACE2-GFP HEK293T) (UniProt Q9BYF1 18-805).
T1 construct: also called ACE2-GFP HEK293T clone 2; ACE2-GFP HEK293T clone 1
As to the kind of experiment: live-cell confocal imaging of ACE2-GFP HEK293T cells.

T1 sequence (Q9BYF1 18-805): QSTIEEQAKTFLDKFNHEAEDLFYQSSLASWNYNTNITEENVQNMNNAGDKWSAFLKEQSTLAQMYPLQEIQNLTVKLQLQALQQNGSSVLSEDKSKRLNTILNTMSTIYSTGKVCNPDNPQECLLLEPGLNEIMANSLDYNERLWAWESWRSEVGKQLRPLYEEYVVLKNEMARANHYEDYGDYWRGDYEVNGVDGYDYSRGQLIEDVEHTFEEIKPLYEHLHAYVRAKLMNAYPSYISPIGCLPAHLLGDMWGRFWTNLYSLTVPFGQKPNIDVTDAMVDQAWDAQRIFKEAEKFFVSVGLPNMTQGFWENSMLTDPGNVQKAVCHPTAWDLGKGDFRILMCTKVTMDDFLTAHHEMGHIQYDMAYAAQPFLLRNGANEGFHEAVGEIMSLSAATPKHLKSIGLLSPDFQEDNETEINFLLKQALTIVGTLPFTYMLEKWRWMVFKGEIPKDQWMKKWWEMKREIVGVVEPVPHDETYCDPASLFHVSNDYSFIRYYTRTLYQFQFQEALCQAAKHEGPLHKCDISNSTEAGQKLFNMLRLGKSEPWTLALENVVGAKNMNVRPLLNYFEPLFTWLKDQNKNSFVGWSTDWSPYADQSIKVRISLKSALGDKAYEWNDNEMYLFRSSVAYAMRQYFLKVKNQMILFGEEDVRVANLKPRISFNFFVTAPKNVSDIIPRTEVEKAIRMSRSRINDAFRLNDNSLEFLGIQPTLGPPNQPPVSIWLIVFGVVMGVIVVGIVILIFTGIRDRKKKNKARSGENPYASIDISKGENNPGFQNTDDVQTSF

B1: SARS-CoV [change] (40150-V08B1) (ligand)
chain: not shown
Regarding B1, the binding result is “binds”.
